Data on two substances can be found in patent publication US20030166162.

The test system of series [1] is GST-Chymosin pro-peptide-Hirudin fusion protein.
The subject of series [2] is poly histidine tagged chymosin pro-peptide carp growth hormone fusion protein.

In the case of chymosin (Sigma), in series [1], the “cleavage of the fusion protein at pH 2.0, Western blotting (results not shown)” value was “complete cleavage was also observed when the GST-Pro-Hirudin fusion which was treated at pH 2.0 and supplemented with 2 ug chymosin”; the “cleavage of the fusion protein at pH 4.5, Western blotting (results not shown)” value is “apart from treatment at pH 4.5, complete cleavage was also observed”. The “cleavage of the fusion protein at pH 2, SDS-PAGE and Western blot” value in series [2] is “the cleavage with chymosin yielded a protein band corresponding to the expected theoretical molecular mass of the cGH (approximately 22 kDa) polypeptide”.

For the substance enterokinase, the “cleavage of the fusion protein, SDS-PAGE and Western blot” value in series [2] is “cleavage of the fusion protein was observed with enterokinase yielding a protein band corresponding to the calculated molecular mass of the Pro-cGH fusion (26 kDa)”.
